In PMC8043444 (bioRxiv, 2021):

Key:
[1] = biological target: T1, SARS-CoV-2 RBD WT for SPR binding assays (SARS-CoV-2, UniProt P0DTC2); assay: cell-based or functional assay
[2] = biological target: T1, SARS-CoV-2 RBD WT for SPR binding assays; assay: SPR
[3] = biological target: SARS-CoV-2 RBD WT for crystallization (SARS-CoV-2, UniProt P0DTC2, deglycosylated by overnight incubation with EndoH glycosidase); assay: crystal structure

B1: S2X35 IgG1 (LS) (antibody, V domains shown)
VH: QVQLVQSGAEVKKPGASVKVSCKASGYTFTNYGISWVRQAPGQGLEWMGWISAYKGNTNYAQKLQGRVTMTTDTSTSTAYMELRSLRSDDTAVYYCARPDYQVLGYDFWIGYYGMDVWGQGTTVIVSS
VL: QSVLTQPPSVSGAPGQRVTISCTGSSSNIGAGYDVHWYQQLPGTAPKLLIYGNTNRPSGVPDRFSGSKSGTSASLAITGLQAEDEADYYCQSYDSSLSGSEVVFGGGTKLTVL
- neutralisation of authentic SARS-CoV-2-Nluc on Vero E6 cells (IF/luc), IC90 [1]: 592
- Kd [2]: 0.06 nM

B2: S2H97 IgG1 (LS) (antibody, V domains shown)
VH: QVRLVQSGAEVKKSGESLKISCKGSGYSFTSYWIGWVRQMPGKGLEWMGIIYPGDSDTRYSPSFQGQVTISADKSISTVYLQWSSLKASDTAMYYCARQWSHYTYDYYYWGQGTLVTISS
VL: QSVLTQPASVSGSPGQSITISCTGISSDVGGYNSVSWYQQHPGKAPKLMIYDVTNRPSGVSNRFSGSKSGNTASLTISGLQAEDEADYYCSSYTSSSTPPYVFGTGTKVSVL
- neutralisation of authentic SARS-CoV-2-Nluc on Vero E6 cells (IF/luc), IC90 [1]: 3290
- Kd [2]: 0.04 nM

B3: S2E12 IgG1 (LS) (antibody, V domains shown)
VH: not shown
VL: DIVLTQTPGTLSLSPGERATLSCRASQSVSSSYLAWYQQKPGQAPRLLIYGASSRATGIPDRFSGSGSGTDFTLTISRLEPEDFAVYYCQQYVGLTGWTFGQGTKVEIK
- neutralisation of authentic SARS-CoV-2-Nluc on Vero E6 cells (IF/luc), IC90 [1]: 14
- Kd [2]: 0.7 nM

B4: S2D106 IgG1 (LS) (antibody, V domains shown)
VH: EVQLVQSGAEVKKPGSSVKVSCKASGGPFSSSAISWVRQAPGQGLEWMGGIIPMVGTANYAQKFQGRVTITADESTSTAYMELSSLRSEDTAVYYCARDSRYCSGGSCYSVWFDPWGQGTLVTVSS
VL: not shown
- neutralisation of authentic SARS-CoV-2-Nluc on Vero E6 cells (IF/luc), IC90 [1]: 23.6
- Kd [2]: 0.04 nM

B5: S2D106 Fab (Fab, V domains shown)
VH: EVQLVQSGAEVKKPGSSVKVSCKASGGPFSSSAISWVRQAPGQGLEWMGGIIPMVGTANYAQKFQGRVTITADESTSTAYMELSSLRSEDTAVYYCARDSRYCSGGSCYSVWFDPWGQGTLVTVSS
VL: not shown
- Kd [2]: 0.05 nM

B6: S2H97 Fab (Fab, V domains shown)
VH: QVRLVQSGAEVKKSGESLKISCKGSGYSFTSYWIGWVRQMPGKGLEWMGIIYPGDSDTRYSPSFQGQVTISADKSISTVYLQWSSLKASDTAMYYCARQWSHYTYDYYYWGQGTLVTISS
VL: QSVLTQPASVSGSPGQSITISCTGISSDVGGYNSVSWYQQHPGKAPKLMIYDVTNRPSGVSNRFSGSKSGNTASLTISGLQAEDEADYYCSSYTSSSTPPYVFGTGTKVSVL
- Kd [2]: 0.03 nM

B7: S2X259 Fab (Fab, V domains shown)
VH: QVQLVQSGAEVKKPGSSVKVSCKASGGIFNTYTISWVRQAPGQGLEWMGRIILMSGMANYAQKIQGRVTITADKSTSTAYMELTSLRSDDTAVYYCARGFNGNYYGWGDDDAFDIWGQGTLVTVYS
VL: QTVLTQPPSVSGAPGQRVTISCTGSNSNIGAGYDVHWYQQLPGTAPKLLICGNSNRPSGVPDRFSGSKSGTSASLAITGLQAEDEADYYCQSYDSSLSGPNWVFGGGTKLTVL
- binding result [3]: binds

B8: S304 IgG1 (LS) (antibody, V domains shown)
VH: EVQLVESGGGLVQPGGSLRLSCAASGFTFSSYDMHWVRQTTGKGLEWVSTIGTAGDTYYPDSVKGRFTISREDAKNSLYLQMNSLRAGDTAVYYCARGDSSGYYYYFDYWGQGTLLTVSS
VL: DIEMTQSPSSLSAAVGDRVTITCRASQSIGSYLNWYQQKPGKAPKLLIYAASSLQSGVPSRFSGSGSGTDFTLTISSLQPEDFAIYYCQQSYVSPTYTFGPGTKVDIK
- Kd [2]: 0.4 nM
